Assay results as given in IntAct's records for PubMed 22580824.

B1: ADP-ribosylation factor 6 (Homo sapiens), P62330 (parent)
chain: MGKVLSKIFGNKEMRILMLGLDAAGKTTILYKLKLGQSVTTIPTVGFNVETVTYKNVKFNVWDVGGQDKIRPLWRHYYTGTQGLIFVVDCADRDRIDEARQELHRIINDREMRDAIILIFANKQDLPDAMKPHEIQEKLGLTRIRDRNWYVQPSCATSGDGLYEGLTWLTSNYKS
partner: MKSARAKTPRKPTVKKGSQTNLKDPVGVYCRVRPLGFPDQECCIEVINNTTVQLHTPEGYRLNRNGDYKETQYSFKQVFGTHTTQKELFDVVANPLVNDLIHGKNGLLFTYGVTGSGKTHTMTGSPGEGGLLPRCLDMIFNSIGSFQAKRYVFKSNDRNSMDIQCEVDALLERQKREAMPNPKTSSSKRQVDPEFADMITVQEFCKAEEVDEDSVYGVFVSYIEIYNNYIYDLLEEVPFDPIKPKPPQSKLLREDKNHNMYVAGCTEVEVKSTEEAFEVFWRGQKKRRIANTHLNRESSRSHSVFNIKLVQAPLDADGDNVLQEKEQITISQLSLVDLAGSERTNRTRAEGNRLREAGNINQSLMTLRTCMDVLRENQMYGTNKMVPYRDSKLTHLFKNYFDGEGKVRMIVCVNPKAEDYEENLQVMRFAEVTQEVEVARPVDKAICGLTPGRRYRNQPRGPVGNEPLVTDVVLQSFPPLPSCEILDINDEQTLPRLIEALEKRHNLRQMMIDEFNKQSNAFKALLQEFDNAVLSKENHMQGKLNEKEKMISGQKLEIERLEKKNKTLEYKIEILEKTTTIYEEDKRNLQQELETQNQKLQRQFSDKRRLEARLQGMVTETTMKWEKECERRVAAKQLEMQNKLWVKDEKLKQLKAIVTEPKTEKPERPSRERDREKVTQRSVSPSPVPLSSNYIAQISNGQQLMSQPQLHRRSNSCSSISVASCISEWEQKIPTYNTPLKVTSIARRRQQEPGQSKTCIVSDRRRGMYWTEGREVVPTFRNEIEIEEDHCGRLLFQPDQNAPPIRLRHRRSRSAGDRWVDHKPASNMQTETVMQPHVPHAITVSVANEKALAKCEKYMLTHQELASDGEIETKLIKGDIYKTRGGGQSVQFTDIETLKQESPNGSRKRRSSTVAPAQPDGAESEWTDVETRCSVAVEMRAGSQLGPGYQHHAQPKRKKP
B2: Kinesin-like protein KIF23 (Homo sapiens), Q02241 (parent)
chain: B1 partner
B3: Kinesin-like protein KIF23 (Homo sapiens), Q02241 (parent)
chain: B1 partner
partner: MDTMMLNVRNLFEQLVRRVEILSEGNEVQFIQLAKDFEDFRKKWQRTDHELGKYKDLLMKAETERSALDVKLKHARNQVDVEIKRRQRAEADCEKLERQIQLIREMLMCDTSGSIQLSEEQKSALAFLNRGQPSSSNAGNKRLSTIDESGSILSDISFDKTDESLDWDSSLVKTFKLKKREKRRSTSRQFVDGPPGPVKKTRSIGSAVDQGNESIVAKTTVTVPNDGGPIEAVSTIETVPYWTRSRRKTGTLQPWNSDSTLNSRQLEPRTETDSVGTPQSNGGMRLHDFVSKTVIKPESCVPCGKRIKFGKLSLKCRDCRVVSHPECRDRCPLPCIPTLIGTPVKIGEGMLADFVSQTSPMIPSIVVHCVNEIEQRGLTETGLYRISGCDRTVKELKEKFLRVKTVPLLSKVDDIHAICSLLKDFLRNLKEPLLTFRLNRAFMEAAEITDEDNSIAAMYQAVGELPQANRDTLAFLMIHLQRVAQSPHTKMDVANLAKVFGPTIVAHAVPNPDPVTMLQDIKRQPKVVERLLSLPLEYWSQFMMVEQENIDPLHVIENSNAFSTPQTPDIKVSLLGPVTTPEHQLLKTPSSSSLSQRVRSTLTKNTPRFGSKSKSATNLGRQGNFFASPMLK

Variants of: B1
Conditions: with kif23_human KIF23, Q02241

| Variant | effect of a mutation on the interaction |
| --- | --- |
| T27N | disrupting interaction |

Variants of: B2
Conditions: with arf6_human ARF6, P62330

| Variant | effect of a mutation on the interaction |
| --- | --- |
| Y858A | disrupting interaction |

Variants of: B2
Conditions: with arf6_human ARF6, P62330
Remark: another data set of the same source

| Variant | effect of a mutation on the interaction |
| --- | --- |
| L860A | disrupting interaction |

Variants of: B2
Conditions: with arf6_human ARF6, P62330
Remark: another data set of the same source

| Variant | effect of a mutation on the interaction |
| --- | --- |
| L860A | decreasing interaction |

Variants of: B2
Conditions: with arf6_human ARF6, P62330
Remark: another data set of the same source

| Variant | effect of a mutation on the interaction |
| --- | --- |
| Q863A | disrupting interaction |

Variants of: B2
Conditions: with arf6_human ARF6, P62330
Remark: another data set of the same source

| Variant | effect of a mutation on the interaction |
| --- | --- |
| Q863A | decreasing interaction |

Variants of: B2
Conditions: with arf6_human ARF6, P62330
Remark: another data set of the same source

| Variant | effect of a mutation on the interaction |
| --- | --- |
| E864A | disrupting interaction |

Variants of: B2
Conditions: with arf6_human ARF6, P62330
Remark: another data set of the same source

| Variant | effect of a mutation on the interaction |
| --- | --- |
| T873A | disrupting interaction |

Variants of: B2
Conditions: with arf6_human ARF6, P62330
Remark: another data set of the same source

| Variant | effect of a mutation on the interaction |
| --- | --- |
| T873A | decreasing interaction |

Variants of: B2
Conditions: with arf6_human ARF6, P62330
Remark: another data set of the same source

| Variant | effect of a mutation on the interaction |
| --- | --- |
| K877A | disrupting interaction |

Variants of: B2
Conditions: with arf6_human ARF6, P62330
Remark: another data set of the same source

| Variant | effect of a mutation on the interaction |
| --- | --- |
| K877A | decreasing interaction |

Variants of: B2
Conditions: with arf6_human ARF6, P62330
Remark: another data set of the same source

| Variant | effect of a mutation on the interaction |
| --- | --- |
| T779A | disrupting interaction |

Variants of: B2
Conditions: with arf6_human ARF6, P62330
Remark: another data set of the same source

| Variant | effect of a mutation on the interaction |
| --- | --- |
| T779A | decreasing interaction |

Variants of: B2
Conditions: with arf6_human ARF6, P62330
Remark: another data set of the same source

| Variant | effect of a mutation on the interaction |
| --- | --- |
| V890A | disrupting interaction |

Variants of: B2
Conditions: with arf6_human ARF6, P62330
Remark: another data set of the same source

| Variant | effect of a mutation on the interaction |
| --- | --- |
| V890A | decreasing interaction |

Variants of: B2
Conditions: with arf6_human ARF6, P62330
Remark: another data set of the same source

| Variant | effect of a mutation on the interaction |
| --- | --- |
| F892A | disrupting interaction |

Variants of: B2
Conditions: with arf6_human ARF6, P62330
Remark: another data set of the same source

| Variant | effect of a mutation on the interaction |
| --- | --- |
| E896A | disrupting interaction |

Variants of: B2
Conditions: with arf6_human ARF6, P62330
Remark: another data set of the same source

| Variant | effect of a mutation on the interaction |
| --- | --- |
| L794A | disrupting interaction |

Variants of: B3
Conditions: with rgap1_human RACGAP1, Q9H0H5

| Variant | effect of a mutation on the interaction |
| --- | --- |
| V890A | increasing interaction |

Variants of: B3
Conditions: with rgap1_human RACGAP1, Q9H0H5
Remark: another data set of the same source

| Variant | effect of a mutation on the interaction |
| --- | --- |
| S814A | increasing interaction |
